Laboratory results published in paper doi:10.1101/2020.10.15.341636 (bioRxiv, 2020).

target: T1, SARS-CoV-2 wild type RBD (BEI NR52309) (Severe acute respiratory syndrome …, UniProt P0DTC2); assay: BLI

Row | Binder | binding result
1 | mAb 324 IgG (antibody, V domains shown) VH: QVQLVQSGAEVKKPGASVKVSCKASGGTFNNYGISWVRQAPGQGLEWMGWMNPNSGNTGYAQKFQGRVTMTRDTSTSTVYMELSSLRSEDTAVYYCARVGDYGDYIVSPFDLWGRGTLVTVSS VL: DIQMTQSPSSLSASVGDRVTITCRASQSITTYLNWYQQKPGKAPKLLIYDASNLETGVPSRFSGSGSGTDFTLTISSLQPEDFATYYCQQSYSTPPTFGQGTKVEIK | binds
2 | mAb 236 IgG (antibody, V domains shown) VH: QVQLVQSGAEVKKPGASVKVSCKASGGTFTSYGINWVRQAPGQGLEWMGWMNPNSGNTGYAQKFQGRVTMTRDTSTSTVYMELSSLRSEDTAVYYCASRGIQLLPRGMDVWGQGTTVTVSS VL: not shown | binds
3 | mAb 52 IgG (antibody, V domains shown) VH: QVQLVQSGAEVKKPGSSVKVSCKASGYTFTSYGISWVRQAPGQGLEWMGGIIPMFGTTNYAQKFQGRVTITADKSTSTAYMELSSLRSEDTAVYYCARDRGDTIDYWGQGTLVTVSS VL: DIQMTQSPSSLSASVGDRVTITCRASQGISNNLNWYQQKPGKAPKLLIYAASSLESGVPSRFSGSGSGTDFTLTISSLQPEDFATYYCQQGNGFPLTFGPGTKVDIK | binds
4 | mAb 298 IgG (antibody, V domains shown) VH: QVQLVQSGAEVKKPGASVKVSCKASGGTFSTYGISWVRQAPGQGLEWMGWISPNSGGTDLAQKFQGRVTMTRDTSTSTVYMELSSLRSEDTAVYYCASDPRDDIAGGYWGQGTLVTVSS VL: not shown | binds

target: T1, SARS-CoV-2 wild type RBD (BEI NR52309); assay: crystal structure

Row | Binder | binding result
5 | Fab 52 (Fab, V domains shown) VH: QVQLVQSGAEVKKPGSSVKVSCKASGYTFTSYGISWVRQAPGQGLEWMGGIIPMFGTTNYAQKFQGRVTITADKSTSTAYMELSSLRSEDTAVYYCARDRGDTIDYWGQGTLVTVSS VL: DIQMTQSPSSLSASVGDRVTITCRASQGISNNLNWYQQKPGKAPKLLIYAASSLESGVPSRFSGSGSGTDFTLTISSLQPEDFATYYCQQGNGFPLTFGPGTKVDIK | binds
6 | Fab 298 (Fab, V domains shown) VH: QVQLVQSGAEVKKPGASVKVSCKASGGTFSTYGISWVRQAPGQGLEWMGWISPNSGGTDLAQKFQGRVTMTRDTSTSTVYMELSSLRSEDTAVYYCASDPRDDIAGGYWGQGTLVTVSS VL: not shown | binds
